Test results from paper PMC12774414.

Target: LssaCA-His (L. striatellus salivary carbonic anhydrase lacking the signal peptide, C-terminal His tag) (Laodelphax striatellus)
Experiment: MST; 10 µM LssaCA^sp- (His-fusion) labelled with NT-647 (RED-NHS), added to serially diluted GST-NP or MBP-OsTLP^sp-; initial concentration 40 µM, 0.1% (v/v) Tween 20; Monolith NT.115; KD Fit

Substance | Kd [nM]
GST-NP (rice stripe virus nucleocapsid protein, GST fusion) (natural protein) | 2700
MBP-OsTLP (Oryza sativa thaumatin-like protein without its signal peptide, N-terminal MBP fusion) (enzyme) | 1300
